Assay results as given in US20250215412A1 (NOVOZYMES A S, published 2025).
Numbering of substitutions follows the chain as printed. In names and notes the source's numbering stands.

Key:
Test in all cases: cell-based or functional assay
[1] = target: T1, Chryseobacterium sp-62563 deamidase C169S (Chryseobacterium sp-62563)
T1 sequence: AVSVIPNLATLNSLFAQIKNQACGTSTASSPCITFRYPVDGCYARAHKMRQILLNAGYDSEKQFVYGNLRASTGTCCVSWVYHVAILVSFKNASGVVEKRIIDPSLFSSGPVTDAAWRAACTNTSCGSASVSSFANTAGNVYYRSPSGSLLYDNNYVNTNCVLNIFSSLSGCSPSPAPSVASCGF

[2] = target: T2, Chryseobacterium sp-62563 deamidase C230H (Chryseobacterium sp-62563)
T2 sequence: T1 sequence with S60C, C121H

[3] = target: T3, Chryseobacterium sp-62563 deamidase Q126D (Chryseobacterium sp-62563)
T3 sequence: T1 sequence with Q17D, S60C

[4] = target: T4, Chryseobacterium sp-62563 deamidase Q126F (Chryseobacterium sp-62563)
T4 sequence: T1 sequence with Q17F, S60C

[5] = target: T5, Chryseobacterium sp-62563 deamidase Q126K (Chryseobacterium sp-62563)
T5 sequence: T1 sequence with Q17K, S60C

[6] = target: T6, Chryseobacterium sp-62563 deamidase Q126Y (Chryseobacterium sp-62563)
T6 sequence: T1 sequence with Q17Y, S60C

[7] = target: T7, Chryseobacterium sp-62563 deamidase Q130K (Chryseobacterium sp-62563)
T7 sequence: T1 sequence with Q21K, S60C

[8] = target: T8, Chryseobacterium sp-62563 deamidase Q130N (Chryseobacterium sp-62563)
T8 sequence: T1 sequence with Q21N, S60C

[9] = target: T9, Chryseobacterium sp-62563 deamidase Q160N (Chryseobacterium sp-62563)
T9 sequence: T1 sequence with Q51N, S60C

[10] = target: T10, Chryseobacterium sp-62563 deamidase Q160R (Chryseobacterium sp-62563)
T10 sequence: T1 sequence with Q51R, S60C

[11] = target: T11, Chryseobacterium sp-62563 deamidase Q160W (Chryseobacterium sp-62563)
T11 sequence: T1 sequence with Q51W, S60C

[12] = target: T12, Chryseobacterium sp-62563 deamidase Q172I (Chryseobacterium sp-62563)
T12 sequence: T1 sequence with S60C, Q63I

B1: Chryseobacterium sp-62563 propeptide F99A (protein)
chain: NQDPNLVAKESNETAMKDFGKTVPVGIEKEDGKFKISFMVTAQPYEIKDSKENAAYISMIKTAVENETPIHVFLKANTNEIAKVDKATDDDIRYFKSVATKEVKEENRK
**Q.** Which results are given for B1?
**A.** Leakage activity [1]: 1%; Relative activity of maturated deamidase (% initial rate) [1]: > 100; Leakage activity [2]: 0%; Relative activity of maturated deamidase (% initial rate) [3]: 99; Relative activity of maturated deamidase (% initial rate) [4]: 52; Relative activity of maturated deamidase (% initial rate) [5]: > 100; Leakage activity [6]: 3%; Relative activity of maturated deamidase (% initial rate) [6]: 98; Relative activity of maturated deamidase (% initial rate) [7]: 92; Leakage activity [8]: 0%; Relative activity of maturated deamidase (% initial rate) [8]: 79; Relative activity of maturated deamidase (% initial rate) [9]: > 100; Relative activity of maturated deamidase (% initial rate) [10]: 86; Leakage activity [11]: 2%; Relative activity of maturated deamidase (% initial rate) [11]: > 100; Relative activity of maturated deamidase (% initial rate) [12]: 31
